Measured values taken from the Human Domainome abundance scans (Beltran et al. 2025).
± gives the uncertainty stated by the source.

B1: Far upstream element-binding protein 3, residues 75 to 150; numbered along this chain, Q96I24 (parent)
chain: RTVITEEFKVPDKMVGFIIGRGGEQISRIQAESGCKIQIASESSGIPERPCVLTGTPESIEQAKRLLGQIVDRCRN

Variants of: B1
Experiment: abundance fitness (aPCA) (normalised: wild type 0, dead -1); higher = more abundant; growth selection in yeast, the domain comes from the species named
Conditions: Homo sapiens

Q: With RTVITEEFKVPDKMVGFIIGRGGEQISRIQAESGCKIQIASESQGIPERPCVLTGTPESIEQAKRLLGQIVDRCRN as the variant, how does the abundance fitness read?
A: 0.006 ± 0.044

Q: For RTVITEEFKVPAKMVGFIIGRGGEQISRIQAESGCKIQIASESSGIPERPCVLTGTPESIEQAKRLLGQIVDRCRN, which abundance fitness is on record?
A: -0.024 ± 0.03

Q: With RTVITEEFKVPDKMVGFIIGRGGEQISRIQASSGCKIQIASESSGIPERPCVLTGTPESIEQAKRLLGQIVDRCRN as the variant, how does the abundance fitness read?
A: -0.093 ± 0.032

Q: Which abundance fitness does the source give for RTVITEEFKVPDKMVGFIIGRGGEQISRIQAESGCKIQIASESSGIPERPCVLTGTPESHEQAKRLLGQIVDRCRN here?
A: -0.631 ± 0.071

Q: For RTVITEEFKVPDKMVGFIIGRGGEQISRIQAESGCKIQIASESSGIQERPCVLTGTPESIEQAKRLLGQIVDRCRN, which abundance fitness is on record?
A: -0.068 ± 0.039

Q: Which abundance fitness does the source give for NTVITEEFKVPDKMVGFIIGRGGEQISRIQAESGCKIQIASESSGIPERPCVLTGTPESIEQAKRLLGQIVDRCRN here?
A: 0.063 ± 0.071

Q: With RTVITREFKVPDKMVGFIIGRGGEQISRIQAESGCKIQIASESSGIPERPCVLTGTPESIEQAKRLLGQIVDRCRN as the variant, how does the abundance fitness read?
A: -0.099 ± 0.028

Q: For RWVITEEFKVPDKMVGFIIGRGGEQISRIQAESGCKIQIASESSGIPERPCVLTGTPESIEQAKRLLGQIVDRCRN, which abundance fitness is on record?
A: -0.133 ± 0.038

Q: With RTVITEEFKVPDKMVGFIIGRGGEQISRIQAESGCKIQIASFSSGIPERPCVLTGTPESIEQAKRLLGQIVDRCRN as the variant, how does the abundance fitness read?
A: -0.093 ± 0.063

Q: With RTVITEEFKVPDKMVGFIIGRGGESISRIQAESGCKIQIASESSGIPERPCVLTGTPESIEQAKRLLGQIVDRCRN as the variant, how does the abundance fitness read?
A: -0.026 ± 0.034

Q: With RTVITEEFKVPDKMVGFIIGRGGEQISRIQAESGCKIQIASPSSGIPERPCVLTGTPESIEQAKRLLGQIVDRCRN as the variant, how does the abundance fitness read?
A: -0.037 ± 0.047

Q: For RTVICEEFKVPDKMVGFIIGRGGEQISRIQAESGCKIQIASESSGIPERPCVLTGTPESIEQAKRLLGQIVDRCRN, which abundance fitness is on record?
A: -0.203 ± 0.073

Q: With RTVITEEFKVPDKMVGFIIGRGGEQISRIQAESGSKIQIASESSGIPERPCVLTGTPESIEQAKRLLGQIVDRCRN as the variant, how does the abundance fitness read?
A: -0.276 ± 0.039

Q: With RTVITEEFKVPDKMVGFIIGRGGEQISRIQAESGCKIQIASESSGIPERPCVLTGTPESIEQAKRLLGQINDRCRN as the variant, how does the abundance fitness read?
A: -0.072 ± 0.054

Q: With PTVITEEFKVPDKMVGFIIGRGGEQISRIQAESGCKIQIASESSGIPERPCVLTGTPESIEQAKRLLGQIVDRCRN as the variant, how does the abundance fitness read?
A: -0.236 ± 0.1

Q: Which abundance fitness does the source give for RTVITEEFKVPDKMVGFIIGRGGEQISRIQAESGCKIQIASESSGWPERPCVLTGTPESIEQAKRLLGQIVDRCRN here?
A: -0.093 ± 0.033

Q: For RTVITEEFKVPDKMVGFIIGRGGEQISRIQAESQCKIQIASESSGIPERPCVLTGTPESIEQAKRLLGQIVDRCRN, which abundance fitness is on record?
A: -0.06 ± 0.049

Q: With RTVITEEFKVPDKMVGFIIRRGGEQISRIQAESGCKIQIASESSGIPERPCVLTGTPESIEQAKRLLGQIVDRCRN as the variant, how does the abundance fitness read?
A: -0.168 ± 0.028

Q: For RTVITEEFKNPDKMVGFIIGRGGEQISRIQAESGCKIQIASESSGIPERPCVLTGTPESIEQAKRLLGQIVDRCRN, which abundance fitness is on record?
A: -0.612 ± 0.081

Q: For RTVITEEFKVPDKMVGFIIGRGGEQISRIQAESGCKIQIASESSGIPERPCVHTGTPESIEQAKRLLGQIVDRCRN, which abundance fitness is on record?
A: -1.09 ± 0.35

Q: With RTVITEEFKVPDKMVGFIIGRGGEQISRIQAESGCKIQIASESSGIPERPCVLTGTPESIEQAKRILGQIVDRCRN as the variant, how does the abundance fitness read?
A: -0.056 ± 0.074

Q: Which abundance fitness does the source give for RTVITEEFKVPDKMVGFAIGRGGEQISRIQAESGCKIQIASESSGIPERPCVLTGTPESIEQAKRLLGQIVDRCRN here?
A: -0.225 ± 0.031

Q: With RTVITEEFKVPDKMVGFIIGRGGEQISRIQAESGCKIQIASESSGIPERPCVLTGTPESIEQASRLLGQIVDRCRN as the variant, how does the abundance fitness read?
A: -0.416 ± 0.032

Q: With RTVVTEEFKVPDKMVGFIIGRGGEQISRIQAESGCKIQIASESSGIPERPCVLTGTPESIEQAKRLLGQIVDRCRN as the variant, how does the abundance fitness read?
A: -0.047 ± 0.029

Q: Which abundance fitness does the source give for RTFITEEFKVPDKMVGFIIGRGGEQISRIQAESGCKIQIASESSGIPERPCVLTGTPESIEQAKRLLGQIVDRCRN here?
A: -0.066 ± 0.065

Q: For RTVITEEFKVPDKMVGFIIGRGGEQISRIQAESGCKIQIASESSGIPERPCVLSGTPESIEQAKRLLGQIVDRCRN, which abundance fitness is on record?
A: -0.078 ± 0.045

Q: Which abundance fitness does the source give for RTVITEEFKVPDKMVGFIIGRGGMQISRIQAESGCKIQIASESSGIPERPCVLTGTPESIEQAKRLLGQIVDRCRN here?
A: -0.019 ± 0.039

Q: With RTVITEEFKVPDKMVGFIIGRGGEQISRIQAESGCKIQIASESSGIPERPCVLTGTPESIEQRKRLLGQIVDRCRN as the variant, how does the abundance fitness read?
A: -1.22 ± 0.048

Q: For RTVITEEFKVPDKMVGFIIGRGGEQISRIQAESGCKIQIASESSGIPERPCVLTGTPESIEQAKRELGQIVDRCRN, which abundance fitness is on record?
A: -0.079 ± 0.034

Q: For RTVITEKFKVPDKMVGFIIGRGGEQISRIQAESGCKIQIASESSGIPERPCVLTGTPESIEQAKRLLGQIVDRCRN, which abundance fitness is on record?
A: -0.01 ± 0.041

Q: For RTVITEEFKVPDKMVGFIIGRGGEQISRIQAESGCKIQIASESSGIPERPCVLTGTPESIEQAKRLLGQIVDRTRN, which abundance fitness is on record?
A: 0.004 ± 0.036

Q: Which abundance fitness does the source give for RTVITEEFKVPDKMVGFIIGRGGEQISRIQAESGCKIQIASECSGIPERPCVLTGTPESIEQAKRLLGQIVDRCRN here?
A: 0.017 ± 0.053

Q: With RTVIFEEFKVPDKMVGFIIGRGGEQISRIQAESGCKIQIASESSGIPERPCVLTGTPESIEQAKRLLGQIVDRCRN as the variant, how does the abundance fitness read?
A: -0.201 ± 0.073

Q: For RTVITEEEKVPDKMVGFIIGRGGEQISRIQAESGCKIQIASESSGIPERPCVLTGTPESIEQAKRLLGQIVDRCRN, which abundance fitness is on record?
A: -0.351 ± 0.038

Q: For RTVITEEFKVPDKMVGFIIGRGGEQISRIQAESGCKIQIASESSGIPERPCVLTGTPESIEQAKRLLGQIVDRCSN, which abundance fitness is on record?
A: -0.021 ± 0.035

Q: With RTVITEEFKVPDKMVGFIIGRGGDQISRIQAESGCKIQIASESSGIPERPCVLTGTPESIEQAKRLLGQIVDRCRN as the variant, how does the abundance fitness read?
A: -0.053 ± 0.049
